Source: patent publication US20180162952A1 (AbbVie / Abbott, published 2018)
One block for each binder: values may come before it.

Legend:
[1] = molecular target: T1, human PTK7, full length, expressed on transduced cells (human, UniProt Q13308 31-1070); test: cell-based or functional assay
T1 sequence: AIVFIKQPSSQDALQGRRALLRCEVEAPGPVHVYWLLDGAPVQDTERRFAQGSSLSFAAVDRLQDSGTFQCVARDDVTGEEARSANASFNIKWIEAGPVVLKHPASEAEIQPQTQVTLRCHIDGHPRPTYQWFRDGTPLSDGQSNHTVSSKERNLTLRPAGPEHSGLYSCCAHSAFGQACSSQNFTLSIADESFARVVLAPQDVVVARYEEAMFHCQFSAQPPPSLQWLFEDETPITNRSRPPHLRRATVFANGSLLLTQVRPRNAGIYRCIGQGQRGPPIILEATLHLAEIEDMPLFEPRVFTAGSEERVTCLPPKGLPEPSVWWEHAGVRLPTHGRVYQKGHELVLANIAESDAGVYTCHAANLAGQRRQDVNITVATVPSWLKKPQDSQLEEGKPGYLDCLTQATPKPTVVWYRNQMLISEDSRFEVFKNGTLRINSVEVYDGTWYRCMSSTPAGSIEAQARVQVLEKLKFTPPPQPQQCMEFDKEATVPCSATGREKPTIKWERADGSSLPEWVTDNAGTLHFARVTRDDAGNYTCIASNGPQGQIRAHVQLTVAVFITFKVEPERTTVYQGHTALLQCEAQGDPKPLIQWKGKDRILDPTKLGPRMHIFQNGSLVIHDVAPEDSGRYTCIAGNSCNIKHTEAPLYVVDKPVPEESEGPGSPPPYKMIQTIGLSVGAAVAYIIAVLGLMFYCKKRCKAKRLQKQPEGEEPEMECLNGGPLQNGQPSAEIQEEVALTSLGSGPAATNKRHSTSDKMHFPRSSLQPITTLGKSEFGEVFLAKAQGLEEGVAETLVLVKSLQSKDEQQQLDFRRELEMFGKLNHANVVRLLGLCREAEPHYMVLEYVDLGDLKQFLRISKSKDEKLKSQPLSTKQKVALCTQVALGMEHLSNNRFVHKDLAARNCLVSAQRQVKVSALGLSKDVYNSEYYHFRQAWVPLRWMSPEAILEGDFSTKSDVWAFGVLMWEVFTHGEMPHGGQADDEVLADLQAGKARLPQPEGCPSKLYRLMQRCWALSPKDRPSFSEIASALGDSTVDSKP

murine PTK7-His [2] = molecular target: T2, murine PTK7-His (murine, UniProt Q8BKG3 23-696, limits assumed); test: ForteBio bio-layer interferometry, mouse PTK7-His against human PTK7-His
T2 construct: also called mouse PTK7-His; mouse PTK7
T2 sequence (looked up): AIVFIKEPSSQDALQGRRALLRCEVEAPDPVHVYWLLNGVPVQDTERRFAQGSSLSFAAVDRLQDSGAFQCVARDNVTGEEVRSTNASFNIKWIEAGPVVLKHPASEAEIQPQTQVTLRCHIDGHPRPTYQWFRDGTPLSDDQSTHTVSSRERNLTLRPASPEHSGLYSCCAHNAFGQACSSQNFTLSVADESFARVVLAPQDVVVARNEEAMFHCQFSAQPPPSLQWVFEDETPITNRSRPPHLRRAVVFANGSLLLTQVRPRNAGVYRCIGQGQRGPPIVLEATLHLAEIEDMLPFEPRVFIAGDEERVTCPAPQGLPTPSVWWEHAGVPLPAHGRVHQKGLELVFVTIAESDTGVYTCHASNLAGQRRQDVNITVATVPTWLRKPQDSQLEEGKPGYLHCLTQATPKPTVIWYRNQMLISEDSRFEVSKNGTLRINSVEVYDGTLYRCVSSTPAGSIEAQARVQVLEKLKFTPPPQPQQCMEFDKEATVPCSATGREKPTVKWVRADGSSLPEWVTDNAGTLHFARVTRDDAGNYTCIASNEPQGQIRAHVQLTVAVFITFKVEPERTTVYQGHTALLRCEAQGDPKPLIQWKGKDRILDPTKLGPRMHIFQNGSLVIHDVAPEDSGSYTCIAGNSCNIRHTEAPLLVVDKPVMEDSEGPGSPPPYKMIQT

[3] = molecular target: T3, PTK7 ECD Ig domains 1-2 Fc fusion (human); test: ELISA, Ig-domain Fc fusion captured by anti-human IgG Fc
T3 construct: Tested as supernatant of transfected 293 cells
T3 chain: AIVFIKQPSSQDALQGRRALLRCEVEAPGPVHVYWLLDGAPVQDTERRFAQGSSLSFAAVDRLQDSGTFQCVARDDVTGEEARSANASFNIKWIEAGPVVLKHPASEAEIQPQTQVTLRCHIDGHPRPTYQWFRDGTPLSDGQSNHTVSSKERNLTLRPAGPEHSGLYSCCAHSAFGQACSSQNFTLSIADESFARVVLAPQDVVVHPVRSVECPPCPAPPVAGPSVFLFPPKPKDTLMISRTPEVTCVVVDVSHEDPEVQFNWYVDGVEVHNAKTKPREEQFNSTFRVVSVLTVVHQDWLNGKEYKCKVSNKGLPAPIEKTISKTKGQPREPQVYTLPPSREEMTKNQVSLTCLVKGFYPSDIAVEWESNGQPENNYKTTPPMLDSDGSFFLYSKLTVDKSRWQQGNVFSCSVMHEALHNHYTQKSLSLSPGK
Procedure: Using these constructs several modulators were tested for their ability to recognize PTK7 proteins with deletions of defined Ig domains. Through an ELISA assay comprising the use of domain deleted constructs and run under standard conditions. In this regard PTK7 Ig domain Fc fusions were captured on ELISA plate coated with goat anti-human IgG Fc-specific (Jackson Immunoresearch) antibody. The ability of each murine anti-PTK7 antibody to bind the various deletion Fc fusion proteins was then detected with HRP-labeled goat anti-mouse Fc-specific antibody.

murine PTK7-His [4] = molecular target: T2, murine PTK7-His; test: ForteBio bio-layer interferometry, one antigen concentration (400 nM)

binding to mouse PTK7 relative to human (murine PTK7-His [2]): ~10% | binding result [3]: binds
B1: SC6.2.35 (antibody, V domains shown)
VH: QVQMQQSGAELMKPGASVKLSCKATGYTFTGYWIEWVKQRPGHGLEWIGEILPGSGRSNSNEKFKGKATFTADTSSNTAYMQLSSLTTEDSAIYYCARGKLSWGQGTLVTVSA
VL: DIVLTQSPASLAVSLGQRATISCRASESVDSFGNSFMHWYQQKPGQPPKLLIYAASNLGSGVPARFSGSGSGTDFSLNIHPVEEDDSAMYFCQQSKEVPRTFGGGSRLEIKR
notes: Murine monoclonal antibody from a hybridoma; also called H2.35; SC6.H2
EC50, saporin (Fab-ZAP) cell killing, 293.PTK7 Cells [1]: 0.65 pM

binding result (murine PTK7-His [4]): no binding (tested: 400 nM)
B2: SC6.10.2 (antibody, V domains shown)
VH: QVQLQQSGAELVRPGVSVKISCKGSGYRFTDYPIHWVKQSHAKSLEWIGIISTYYGDVTNNPKFRGKATMTVDKSSTTAYMELARLTSEDSAIYYCARNDLFAYWGQGTLVTVSA
VL: DIVMTQSQKFMSTSVGDRVNVTCKASQNVGTNVVWYQQKTGQSPKALIHSASYRYSGVPDRFTGSGSGTDFTLTLSNVQSEDLAEYFCQHYNSFPYTFGGGTKLEIKR
notes: Murine monoclonal antibody from a hybridoma; also called H10.2; H10
EC50, saporin (Fab-ZAP) cell killing, 293.PTK7 Cells [1]: 1.1 pM
